B1: ARC1623 (mixed)
RNA: ACAGGCAAGUAAUUGGGGAGUGCGGGCGGGGUGU
modifications: 2'-OMe at all C and all U and at G16, G17, G24, G25, G30, G31; all other nucleotides 2'-deoxy (all A deoxy); PS after positions 17, 18, 19, 21; 3' inverted dT
B2: ARC1626 (mixed)
RNA: B1 RNA
modifications: 2'-OMe at all C and all U and at G16, G17, G24, G25, G30, G31; all other nucleotides 2'-deoxy (all A deoxy); PS after positions 2, 3, 4, 6, 7, 8, 10, 11, 14, 17, 18, 19, 21, 25, 27, 28, 32; 3' inverted dT

Tests used:
[1] = biological target: T1, IL-23 (p19/p40 heterodimer) (Homo sapiens, UniProt P29460;Q9NPF7 P29460:23-328,Q9NPF7:20-189); assay: FP; conditions: label: 5'-32P
[2] = biological target: T1, IL-23 (p19/p40 heterodimer); assay: filter; dot blot nitrocellulose; Dulbecco's PBS with Ca2+ and Mg2+, 0.1 mg/mL BSA, room temp 30 min; conditions: label: 5'-32P
Protocol: Aptamer binding affinity determination. Trace 5′-³²P-labeled aptamers were combined with protein (IL-23 or IL-12) at various concentrations and incubated at room temperature for 30 minutes in Dulbecco's PBS (PBS plus Ca²⁺, Mg²⁺) plus 0.1 mg/mL BSA. Each titration curve was tested in duplicate. The reactions were then added to a dot blot apparatus (Minifold-1 Dot Blot, Acrylic, Schleicher and Schuell, Keene, N.H.), assembled (from top to bottom) with Protran nitrocellulose (Schleicher and Schuell, Keene, N.H.), Hybond-P nylon (Amersham Biosciences, Piscataway, N.J.) and GB002 gel blot paper (Schleicher and Schuell, Keene, NH). Aptamers bound to protein are retained on the nitrocellulose filter, whereas the non-protein bound RNA is captured on the nylon filter. The extent of aptamer capture on each filter was quantitated using a Phosphoimager (Molecular Dynamics). Equilibrium dissociation constants (KD) were calculated using the equation: […]
FIGS. 3 and 4 show the comparison of the aptamer binding curves (in duplicate) to cynomolgus IL-23, cynomolgus IL-12, and human IL-23.

T1 sequence (P29460 23-328, chain 1 of 2): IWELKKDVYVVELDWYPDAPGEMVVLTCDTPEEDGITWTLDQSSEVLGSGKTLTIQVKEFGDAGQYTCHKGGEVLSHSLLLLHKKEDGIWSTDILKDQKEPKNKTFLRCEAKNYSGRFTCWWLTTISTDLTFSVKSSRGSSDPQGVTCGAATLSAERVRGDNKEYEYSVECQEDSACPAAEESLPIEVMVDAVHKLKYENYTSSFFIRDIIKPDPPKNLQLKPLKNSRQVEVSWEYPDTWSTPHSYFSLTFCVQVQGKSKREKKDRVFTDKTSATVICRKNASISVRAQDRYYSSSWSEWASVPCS
T1 sequence (Q9NPF7 20-189, chain 2 of 2): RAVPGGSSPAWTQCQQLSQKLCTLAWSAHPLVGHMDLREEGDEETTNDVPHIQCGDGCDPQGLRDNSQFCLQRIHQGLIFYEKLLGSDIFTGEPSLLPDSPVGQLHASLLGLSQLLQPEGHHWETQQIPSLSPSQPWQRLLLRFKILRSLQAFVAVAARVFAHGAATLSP

Binder	Kd [1]	Kd [2]
B1	0.25 nM	
B2		0.15 nM
